{"source": "patent US20220016257A1", "about": "(Daiichi Sankyo, published 2022)", "binders": {"B1": {"name": "rat anti-CDH6 monoclonal antibody rG019 (antibody, IgG2b, V domains shown)", "VH": "QVQLQQSGAELVKPGSSVKISCKASGYTFTRNFMHWIKQQPGNGLEWIGWIYCGDGETEYNQKFNGKATLTADRSSSTAYMELSRLTSEDSAVYFCARGVYGGFAGGYFDFWGQGVMVTVSS", "VL": "DIQMTQSPSLLSASVGDRVTLNCKASQNIYKNLAWYQQKLGEGPKLLIYDANTLQTGIPSRFSGSGSGSDFTLTISSLQPEDVATYFCQQYYSGWAFGGVTNLELKRA", "notes": "Rat antibody purified from hybridoma supernatant; also called rG019 antibody; clone rG019"}}, "key": {"[1]": {"target": "T1, EC3-deleted human CDH6 (EC3 deletion mutant, on cells) (human, UniProt P55285 54-790)", "T1 construct": "Full-length human CDH6 lacking EC3; Cloned in p3xFLAG-CMV-9; also called EC3-deleted hCDH6", "T1 sequence": "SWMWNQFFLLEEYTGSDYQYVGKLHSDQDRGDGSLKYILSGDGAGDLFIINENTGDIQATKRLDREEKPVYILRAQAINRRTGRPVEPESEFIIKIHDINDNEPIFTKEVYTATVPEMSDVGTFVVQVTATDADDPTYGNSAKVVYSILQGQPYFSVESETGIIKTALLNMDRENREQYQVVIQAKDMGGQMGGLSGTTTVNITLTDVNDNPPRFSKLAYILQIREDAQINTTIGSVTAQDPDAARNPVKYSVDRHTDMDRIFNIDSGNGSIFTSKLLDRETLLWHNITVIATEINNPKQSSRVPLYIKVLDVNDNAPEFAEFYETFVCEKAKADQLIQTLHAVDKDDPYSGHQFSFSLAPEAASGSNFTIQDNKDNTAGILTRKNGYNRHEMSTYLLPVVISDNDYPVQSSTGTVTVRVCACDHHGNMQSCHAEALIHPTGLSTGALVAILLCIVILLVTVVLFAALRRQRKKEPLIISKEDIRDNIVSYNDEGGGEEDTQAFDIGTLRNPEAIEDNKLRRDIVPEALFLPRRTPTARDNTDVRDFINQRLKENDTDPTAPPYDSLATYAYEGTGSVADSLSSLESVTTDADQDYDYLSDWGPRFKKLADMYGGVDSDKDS", "experiment": "flow cytometry, 293α cells transiently expressing EC3-deleted hCDH6 (open) against untransfected cells (shaded), anti-rat IgG-FITC [4]", "experimental": "The cells were cultured overnight under conditions of 37° C. and 5% CO₂, treated with TrypLE Express (Thermo Fisher Scientific Inc.), and thereafter, a cell suspension was prepared. […] Thereafter, the cells were suspended by the addition of the anti-CDH6 monoclonal antibody (clone No: rG019), which had been prepared in Example 1)-7, or rat IgG control (R&D Systems, Inc.) (final concentration: 20 nM). The cells were left standing at 4° C. for 1 hour. The cells were washed twice with PBS supplemented with 5% FBS, and then suspended by the addition of Anti-Rat IgG (whole molecule)-FITC antibody produced in rabbit (Sigma-Aldrich Co. LLC) that had been 50-fold diluted with PBS supplemented with 5% FBS. The cells were left standing at 4° C. for 1 hour. The cells were washed twice with PBS supplemented with 5% FBS, followed by detection using a flow cytometer (Canto II; BD Biosciences). The data was analyzed using FlowJo (TreeStar, Inc.). In the histograms of FIGS. 2-1 to 2-2, the abscissa depicts FITC fluorescence intensity indicating the amount of the antibody bound, and the ordinate depicts cell count. […] Fluorescence intensity is enhanced when the antibody binds to full-length hCDH6 or each EC domain deletion mutant on the surface of cells."}, "[2]": {"target": "T2, human CDH6 (full-length, on cells) (human, UniProt P55285 54-790)", "T2 construct": "also called hCDH6; full-length hCDH6", "T2 sequence": "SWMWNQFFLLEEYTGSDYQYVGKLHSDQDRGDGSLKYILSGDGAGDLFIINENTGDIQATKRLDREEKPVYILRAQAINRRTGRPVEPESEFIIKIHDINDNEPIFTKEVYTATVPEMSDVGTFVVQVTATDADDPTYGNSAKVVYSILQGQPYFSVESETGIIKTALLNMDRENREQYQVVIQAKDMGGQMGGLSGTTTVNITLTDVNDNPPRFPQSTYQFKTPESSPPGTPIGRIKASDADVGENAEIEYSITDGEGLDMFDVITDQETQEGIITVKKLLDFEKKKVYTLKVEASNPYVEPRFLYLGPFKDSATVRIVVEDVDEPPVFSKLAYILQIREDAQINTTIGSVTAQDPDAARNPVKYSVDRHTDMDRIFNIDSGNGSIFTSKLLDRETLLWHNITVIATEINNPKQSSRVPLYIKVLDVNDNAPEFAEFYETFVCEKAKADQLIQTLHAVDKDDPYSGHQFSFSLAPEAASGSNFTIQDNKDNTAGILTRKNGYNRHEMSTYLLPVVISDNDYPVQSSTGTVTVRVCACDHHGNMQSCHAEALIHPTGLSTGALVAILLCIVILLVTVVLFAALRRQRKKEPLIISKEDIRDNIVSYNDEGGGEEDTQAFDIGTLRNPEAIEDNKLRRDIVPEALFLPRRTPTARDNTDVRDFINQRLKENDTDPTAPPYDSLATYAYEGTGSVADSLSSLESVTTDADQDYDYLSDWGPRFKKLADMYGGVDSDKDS", "experiment": "flow cytometry, 293T cells transiently transfected with pcDNA3.1-hCDH6 (open) against untransfected 293T cells (shaded), antibody 10 ng/mL, anti-rat IgG-FITC", "experimental": "The human CDH6-binding activity of the rat anti-CDH6 antibody produced in Example 1)-7 was evaluated by flow cytometry. […] The cells were cultured overnight under conditions of 37° C. and 5% C02, treated with TrypLE Express (Thermo Fisher Scientific Inc.), and thereafter, a cell suspension was prepared. […] Thereafter, the cells were suspended by the addition of the rat anti-CDH6 monoclonal antibody (clone No: rG019), which had been prepared in Example 1)-7, or rat IgG control (R&D Systems, Inc.) (final concentration: 10 ng/mL). The cells were left standing at 4° C. for 1 hour. The cells were washed twice with PBS supplemented with 5% FBS, and then suspended by the addition of Anti-Rat IgG (whole molecule)-FITC antibody produced in rabbit (Sigma-Aldrich Co. LLC) that had been 50-fold diluted with PBS supplemented with 5% FBS. The cells were left standing at 4° C. for 1 hour. The cells were washed twice with PBS supplemented with 5% FBS, followed by detection using a flow cytometer (FC500; Beckman Coulter, Inc.). The data was analyzed using FlowJo (TreeStar, Inc.). In the histogram of FIG. 1, the abscissa depicts FITC fluorescence intensity indicating the amount of the antibody bound, and the ordinate depicts a cell count. […] The rat IgG control binds to neither of the cells."}}, "data": [{"binder": "B1", "values": [{"measurement": "binding result", "setting": "[1]", "result": "no binding (tested: 20 nM)"}, {"measurement": "binding result", "setting": "[2]", "result": "binds"}]}]}
